Article PMC2757159 (Biochemistry, 2009)

Biological target: the molecule itself
Assay: SEC

B1: human H46R/H48Q copper-zinc superoxide dismutase (SOD1) double mutant (enzyme)
chain: not shown
Question: With B1 as the protein, how does the “stoichiometry N” value read?
Answer: The value was 2.
